Data taken from patent publication US20160257748A1 (Amgen, published 2016).
Each block holds one binder with its values, some of them ahead of it.

Key:
[1] = molecular target: T1, Human Epidermal Growth Factor Receptor (HER2) (human, UniProt P04626 23-1255); assay: cell-based or functional assay
[2] = molecular target: T2, folate receptor 1 (human, UniProt P15328 25-234); assay: cell-based or functional assay
[3] = molecular target: T2, folate receptor 1; assay: cell-based or functional assay; remark: listed apart in the source
[4] = molecular target: T1, Human Epidermal Growth Factor Receptor …; assay: cell-based or functional assay; remark: listed apart in the source
[5] = molecular target: T1, Human Epidermal Growth Factor Receptor …; assay: cell-based or functional assay; remark: listed apart in the source
[6] = molecular target: T1, Human Epidermal Growth Factor Receptor …; assay: FACS titration on T47D cells

T2 sequence (P15328 25-234): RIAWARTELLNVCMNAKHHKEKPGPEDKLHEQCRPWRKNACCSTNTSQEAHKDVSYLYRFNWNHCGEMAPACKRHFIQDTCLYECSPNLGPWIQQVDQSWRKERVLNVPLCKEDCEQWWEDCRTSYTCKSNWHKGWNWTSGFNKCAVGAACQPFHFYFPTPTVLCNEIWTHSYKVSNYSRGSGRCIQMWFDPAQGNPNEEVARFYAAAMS

B1: aCD3-Fc-aHER2 (bispecific antibody)
chain 1: EVQLVESGGGLVQPGGSLKLSCAASGFTFNSYAMNWVRQAPGKGLEWVARIRSKYNNYATYYADSVKGRFTISRDDSKNTAYLQMNNLKTEDTAVYYCVRHGNFGNSYVSWWAYWGQGTLVTVSSASTKGPSVFPLAPSSKSTSGGTAALGCLVKDYFPEPVTVSWNSGALTSGVHTFPAVLQSSGLYSLSSVVTVPSSSLGTQTYICNVNHKPSNTKVDKRVEPKSCDKTHTCPPCPAPEAAGGPSVFLFPPKPKDTLMISRTPEVTCVVVDVSHEDPEVKFNWYVDGVEVHNAKTKPREEQYNSTYRVVSVLTVLHQDWLNGKEYKCKVSNKALPAPIEKTISKAKGQPREPQVYTLPPSRKEMTKNQVSLTCLVKGFYPSDIAVEWESNGQPENNYKTTPPVLKSDGSFFLYSKLTVDKSRWQQGNVFSCSVMHEALHNHYTQKSLSLSPGKAAAGGGGSGGGGSEVQLLEQSGAELVRPGALVKLSCKASGFKIKDYFVNWVKQRPEQGLEWIGWIDPENDNSLYGPNFQDKASITADTSSNTGYLQLSGLTSEDTAVYYCALYYGSRGDAMDYWGQGTTVTVSSASTKGPSVFPLAPSSKSTSGGTAALGCLVKDYFPEPVTVSWNSGALTSGVHTFPAVLQSSGLYSLSSVVTVPSSSLGTQTYICNVNHKPSNTKVDKRVEPKSC
chain 2: not shown
EC50, T cell dependent cytolysis of JIMT-1 cells [1]: 0.0518 nM

B2: aCD3-Fc-aFOLR1 (bispecific antibody)
chain 1: EVQLVESGGGLVQPGGSLKLSCAASGFTFNSYAMNWVRQAPGKGLEWVARIRSKYNNYATYYADSVKGRFTISRDDSKNTAYLQMNNLKTEDTAVYYCVRHGNFGNSYVSWWAYWGQGTLVTVSSASTKGPSVFPLAPSSKSTSGGTAALGCLVKDYFPEPVTVSWNSGALTSGVHTFPAVLQSSGLYSLSSVVTVPSSSLGTQTYICNVNHKPSNTKVDKRVEPKSCDKTHTCPPCPAPEAAGGPSVFLFPPKPKDTLMISRTPEVTCVVVDVSHEDPEVKFNWYVDGVEVHNAKTKPREEQYNSTYRVVSVLTVLHQDWLNGKEYKCKVSNKALPAPIEKTISKAKGQPREPQVYTLPPSRKEMTKNQVSLTCLVKGFYPSDIAVEWESNGQPENNYKTTPPVLKSDGSFFLYSKLTVDKSRWQQGNVFSCSVMHEALHNHYTQKSLSLSPGKAAAGGGGSGGGGSQVQLQESGPGLVKPSQTLSLTCTVSGGSISSGAYYWTWIRQHPGKGLEWIGYIYYSGSTYYNPSLKSRVSISIDTSKNQFSLKLSSVTAADTAVYYCARGSSSWFDYWGQGTLVTVSSASTKGPSVFPLAPSSKSTSGGTAALGCLVKDYFPEPVTVSWNSGALTSGVHTFPAVLQSSGLYSLSSVVTVPSSSLGTQTYICNVNHKPSNTKVDKRVEPKSC
chain 2: not shown
EC50 (pM), T cell dependent cytolysis of Cal-51 cells [2]: 306 pM

B3: aFOLR1-Fc-aCD3 (bispecific antibody)
chain 1: QVQLQESGPGLVKPSQTLSLTCTVSGGSISSGAYYWTWIRQHPGKGLEWIGYIYYSGSTYYNPSLKSRVSISIDTSKNQFSLKLSSVTAADTAVYYCARGSSSWFDYWGQGTLVTVSSASTKGPSVFPLAPSSKSTSGGTAALGCLVKDYFPEPVTVSWNSGALTSGVHTFPAVLQSSGLYSLSSVVTVPSSSLGTQTYICNVNHKPSNTKVDKRVEPKSCDKTHTCPPCPAPEAAGGPSVFLFPPKPKDTLMISRTPEVTCVVVDVSHEDPEVKFNWYVDGVEVHNAKTKPREEQYNSTYRVVSVLTVLHQDWLNGKEYKCKVSNKALPAPIEKTISKAKGQPREPQVYTLPPSRKEMTKNQVSLTCLVKGFYPSDIAVEWESNGQPENNYKTTPPVLKSDGSFFLYSKLTVDKSRWQQGNVFSCSVMHEALHNHYTQKSLSLSPGKAAAGGGGSGGGGSEVQLVESGGGLVQPGGSLKLSCAASGFTFNSYAMNWVRQAPGKGLEWVARIRSKYNNYATYYADSVKGRFTISRDDSKNTAYLQMNNLKTEDTAVYYCVRHGNFGNSYVSWWAYWGQGTLVTVSSASTKGPSVFPLAPSSKSTSGGTAALGCLVKDYFPEPVTVSWNSGALTSGVHTFPAVLQSSGLYSLSSVVTVPSSSLGTQTYICNVNHKPSNTKVDKRVEPKSC
chain 2: not shown
EC50 (concentration for half maximal lysis), T cell dependent cytolysis of Cal-51 cells [3]: 0.114 nM
EC50 (concentration for half maximal lysis), T cell dependent cytolysis of T47D cells [3]: 0.105 nM
EC50 (pM), T cell dependent cytolysis of Cal-51 cells [2]: 60.9 pM

The next lines start with the values.

EC50 (pM), % CD25+ T cells (with SKOV-3 cells) [4]: 79.3 pM
EC50 (pM), % of T cells that are dividing (with SKOV-3 cells) [4]: 76.7 pM
EC50 (pM), T cell dependent cytolysis of BT474 cells [5]: 638 pM
EC50 (pM), T cell dependent cytolysis of SKOV-3 cells [5]: 165 pM
EC50, T cell dependent cytolysis of JIMT-1 cells [1]: 0.0565 nM
B4: aHER2-Fc-aCD3 (bispecific antibody)
chain 1: EVQLLEQSGAELVRPGALVKLSCKASGFKIKDYFVNWVKQRPEQGLEWIGWIDPENDNSLYGPNFQDKASITADTSSNTGYLQLSGLTSEDTAVYYCALYYGSRGDAMDYWGQGTTVTVSSASTKGPSVFPLAPSSKSTSGGTAALGCLVKDYFPEPVTVSWNSGALTSGVHTFPAVLQSSGLYSLSSVVTVPSSSLGTQTYICNVNHKPSNTKVDKRVEPKSCDKTHTCPPCPAPEAAGGPSVFLFPPKPKDTLMISRTPEVTCVVVDVSHEDPEVKFNWYVDGVEVHNAKTKPREEQYNSTYRVVSVLTVLHQDWLNGKEYKCKVSNKALPAPIEKTISKAKGQPREPQVYTLPPSRKEMTKNQVSLTCLVKGFYPSDIAVEWESNGQPENNYKTTPPVLKSDGSFFLYSKLTVDKSRWQQGNVFSCSVMHEALHNHYTQKSLSLSPGKAAAGGGGSGGGGSEVQLVESGGGLVQPGGSLKLSCAASGFTFNSYAMNWVRQAPGKGLEWVARIRSKYNNYATYYADSVKGRFTISRDDSKNTAYLQMNNLKTEDTAVYYCVRHGNFGNSYVSWWAYWGQGTLVTVSSASTKGPSVFPLAPSSKSTSGGTAALGCLVKDYFPEPVTVSWNSGALTSGVHTFPAVLQSSGLYSLSSVVTVPSSSLGTQTYICNVNHKPSNTKVDKRVEPKSC
chain 2: not shown

binding result [6]: binds
B5: aCD3/HER2 heterodimer (bispecific antibody)
chain 1: EVQLVESGGGLVQPGGSLKLSCAASGFTFNSYAMNWVRQAPGKGLEWVARIRSKYNNYATYYADSVKGRFTISRDDSKNTAYLQMNNLKTEDTAVYYCVRHGNFGNSYVSWWAYWGQGTLVTVSSGGGGSGGGGSELVMTQTPSSLSASLGDRVTISCRASQDISNYLNWYQQKPDGTVKLLIYYTSRLHSGVPSRFSGSGSGTDYSLTISNLEQEDIATYFCQQGNTLPLTFGAGTKLEIKASTKGPSVFPLAPCSRSTSESTAALGCLVKDYFPEPVTVSWNSGALTSGVHTFPAVLQSSGLYSLSSVVTVPSSNFGTQTYTCNVDHKPSNTKVDKTVGGGGSAAAEPKSSDKTHTCPPCPAPEAAGGPSVFLFPPKPKDTLMISRTPEVTCVVVDVSHEDPEVKFNWYVDGVEVHNAKTKPREEQYNSTYRVVSVLTVLHQDWLNGKEYKCKVSNKALPAPIEKTISKAKGQPREPQVYTLPPSREEMTKNQVSLTCLVKGFYPSDIAVEWESNGQPENNYDTTPPVLDSDGSFFLYSDLTVDKSRWQQGNVFSCSVMHEALHNHYTQKSLSLSPGK
chain 2: not shown
notes: also called P136797.3; positive control heterodimeric antibody
